The text below walks through data of IntAct's records for PubMed 21905166.

First the molecules themselves.
B1: Rab proteins geranylgeranyltransferase component A 1 (Homo sapiens), P24386 (parent)
chain: MADTLPSEFDVIVIGTGLPESIIAAACSRSGRRVLHVDSRSYYGGNWASFSFSGLLSWLKEYQENSDIVSDSPVWQDQILENEEAIALSRKDKTIQHVEVFCYASQDLHEDVEEAGALQKNHALVTSANSTEAADSAFLPTEDESLSTMSCEMLTEQTPSSDPENALEVNGAEVTGEKENHCDDKTCVPSTSAEDMSENVPIAEDTTEQPKKNRITYSQIIKEGRRFNIDLVSKLLYSRGLLIDLLIKSNVSRYAEFKNITRILAFREGRVEQVPCSRADVFNSKQLTMVEKRMLMKFLTFCMEYEKYPDEYKGYEEITFYEYLKTQKLTPNLQYIVMHSIAMTSETASSTIDGLKATKNFLHCLGRYGNTPFLFPLYGQGELPQCFCRMCAVFGGIYCLRHSVQCLVVDKESRKCKAIIDQFGQRIISEHFLVEDSYFPENMCSRVQYRQISRAVLITDRSVLKTDSDQQISILTVPAEEPGTFAVRVIELCSSTMTCMKGTYLVHLTCTSSKTAREDLESVVQKLFVPYTEMEIENEQVEKPRILWALYFNMRDSSDISRSCYNDLPSNVYVCSGPDCGLGNDNAVKQAETLFQEICPNEDFCPPPPNPEDIILDGDSLQPEASESSAIPEANSETFKESTNLGNLEESSE
partner: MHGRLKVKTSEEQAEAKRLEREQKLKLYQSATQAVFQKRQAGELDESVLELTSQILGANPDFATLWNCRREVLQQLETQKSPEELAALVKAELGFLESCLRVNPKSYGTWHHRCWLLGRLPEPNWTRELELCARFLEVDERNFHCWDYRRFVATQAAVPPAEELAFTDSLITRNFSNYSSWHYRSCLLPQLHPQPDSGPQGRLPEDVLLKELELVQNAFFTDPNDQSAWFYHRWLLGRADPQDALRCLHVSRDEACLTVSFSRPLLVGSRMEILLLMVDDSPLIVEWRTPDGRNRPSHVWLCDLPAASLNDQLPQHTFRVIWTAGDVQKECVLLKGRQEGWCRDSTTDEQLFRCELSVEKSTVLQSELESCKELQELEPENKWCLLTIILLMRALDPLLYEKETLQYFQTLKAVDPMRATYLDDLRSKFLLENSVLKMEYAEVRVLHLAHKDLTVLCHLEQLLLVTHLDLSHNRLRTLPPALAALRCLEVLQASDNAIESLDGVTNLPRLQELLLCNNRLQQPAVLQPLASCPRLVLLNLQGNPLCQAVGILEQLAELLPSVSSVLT

The variants in this assay derive from B1. Particulars: with pgta_human RABGGTA.
Consider H507R, for which the “effect of a mutation on the interaction” value is “disrupting interaction”.
